The subject of one test is whole blood. As to the kind of experiment: PDGF release in ACD-anticoagulated whole blood treated with activators (Example 10). It counts as cell-based, human. Particulars: after 60 minutes. On the procedure: Whole blood was collected from a healthy volunteer by a certified phlebotomist into a 8.5 mL ACD-containing Vacutainer. 375 ul of 0.167 mM PAR1-AP in ultrapure water or 200 ul of 0.1 unit/microliter of thrombin (Zymogenetics) were injected into the vacutainers via a sterile 1 mL syringe; samples were gently mixed by inverting 10 times and incubated at ambient temperature for specified time. The samples were then centrifugated at 2,380×g for 5 minutes at ambient temperatures and ˜3 mL clear supernatants were collected from the top of each sample and transferred into sterile 15 mL conical tubes. Concentration of PDGF-BB in each sample was determined by ELISA (Quantikine kit, R&D Systems) according to the manufacturer's protocol.

Test [1] has as its target T1, Collagenase (Matrix metalloproteinase I) (Homo sapiens, UniProt P03956).
T1 sequence (P03956 100-469): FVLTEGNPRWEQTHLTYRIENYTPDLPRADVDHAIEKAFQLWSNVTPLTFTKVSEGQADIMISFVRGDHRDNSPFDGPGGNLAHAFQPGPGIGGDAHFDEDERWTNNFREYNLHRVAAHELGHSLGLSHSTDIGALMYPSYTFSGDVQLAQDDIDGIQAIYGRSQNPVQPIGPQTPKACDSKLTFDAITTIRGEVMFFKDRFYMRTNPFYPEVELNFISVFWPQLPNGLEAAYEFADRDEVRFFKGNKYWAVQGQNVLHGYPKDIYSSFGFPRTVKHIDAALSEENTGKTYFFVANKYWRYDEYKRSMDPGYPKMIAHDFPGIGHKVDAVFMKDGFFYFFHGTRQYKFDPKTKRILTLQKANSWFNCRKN
Particulars: cited from earlier work.

In a further test the test system is platelets. The test is described as follows: Selectively activated PRP and washed platelet releasates, PDGF-BB ELISA (Example 11). It counts as cell-based, human. Particulars: PRP and WP preparations, Patients A and B. On the procedure:
Fresh whole blood (WB) was collected into tubes containing appropriate levels of Anti-coagulant Citrate Dextrose (ACD) to prevent platelet activation and coagulation. WB samples were then split into 4 conical tubes, 50 ml WB+ACD per tube. Red Blood Cells (RBCs) were then removed by centrifuging the tubes at 3500 rpm for 10 minutes in a clinical centrifuge. Supernatants (approximately 25 ml) with some RBCs remaining were pooled into 2 conical tubes and centrifuged again at 3500 rpm for 10 minutes. Clear supernatants (plasma) were then transferred to new 50 ml conical, and Buffy Coat (BC) with some RBCs put into 15 ml conicals. […]
PRP and WPs were aliquotted into 1 ml volumes, and 4 tubes of PRP and 4 tubes of WPs were used for preparation of activated releasates: (1) no selective activation, in which no platelet activator was added (2) PAR1 activation, in which 20 ul of 500 uM PAR1 Activating Peptide (PAR1 AP) (SFLLRN, SEQ ID: 40) was added, (3) PAR4 activation, in which 20 ul of 500 uM PAR4 Activating Peptide (PAR4 AP) (AYPGKF, SEQ ID: 44) was added, and (4) ADP activation, to which 20 ul of 2.5 mM ADP (Adenosine-5′-diphosphate) was added. […] PDGF-BB levels were then measured by ELISA using a Human PDGF-BB Quantikine ELISA Kit (R&D Systems).

As to `Nc1ncnc2c1ncn2[C@@H]1O[C@H](COP(=O)(O)OP(=O)(O)O)[C@@H](O)[C@H]1O` [ADP, Adenosine-5′-diphosphate], in the test with whole blood, the Signs of coagulation result was “did not”.

With GPQGIAGQ, the “kcat/Km relative to that of PQGIAG” value in test [1] is listed as 100%. In the case of GPQGIASQ, in test [1], the “kcat/Km relative to that of PQGIAG” value is on record as 130%. Regarding GPQGIFGQ, the “kcat/Km relative to that of PQGIAG” value in test [1] is >300%. Take GPQGIWGQ: the “kcat/Km relative to that of PQGIAG” value in test [1] is on record as >700%. Regarding GPQGRAGQ, in test [1], the “kcat/Km relative to that of PQGIAG” value was <5%. Regarding GPQGVAGQ, the “kcat/Km relative to that of PQGIAG” value in test [1] is reported as 9%.

In the case of GPVGIAGQ, the “kcat/Km relative to that of PQGIAG” value in test [1] is recorded as 30%. Regarding SFLLRN [PAR1-AP], in the test with platelets, the “Release of PDGF-BB compared between activators” value was “greatest release of PDGF-BB”.

On to Thrombin, for which the Signs of coagulation entry with whole blood was “some signs of coagulation”.
